Measurements reported in patent US20140011978A1 (EPFL TTO, published 2014).

T1: TNC III1-5 (human, UniProt P24821 622-1074)
T1 construct: The secreted protein in the assays lacks the leader; also called TG-TNC III1-5; engineered TNC III1-5
T1 sequence: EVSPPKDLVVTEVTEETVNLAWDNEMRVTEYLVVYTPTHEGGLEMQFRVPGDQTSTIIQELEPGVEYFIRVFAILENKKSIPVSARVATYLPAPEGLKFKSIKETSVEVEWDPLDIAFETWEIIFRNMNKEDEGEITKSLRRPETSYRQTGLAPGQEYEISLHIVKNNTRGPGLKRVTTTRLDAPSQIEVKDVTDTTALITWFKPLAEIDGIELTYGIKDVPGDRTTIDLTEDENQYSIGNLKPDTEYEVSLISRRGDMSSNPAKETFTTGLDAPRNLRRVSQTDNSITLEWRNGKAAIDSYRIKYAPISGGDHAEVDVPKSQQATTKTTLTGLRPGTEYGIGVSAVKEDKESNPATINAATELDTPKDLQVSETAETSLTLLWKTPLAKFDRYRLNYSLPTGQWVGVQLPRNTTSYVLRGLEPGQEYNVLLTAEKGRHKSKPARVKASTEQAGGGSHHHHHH

T2: PlGF-1 (UniProt P49763-2 19-149)
T2 sequence (looked up): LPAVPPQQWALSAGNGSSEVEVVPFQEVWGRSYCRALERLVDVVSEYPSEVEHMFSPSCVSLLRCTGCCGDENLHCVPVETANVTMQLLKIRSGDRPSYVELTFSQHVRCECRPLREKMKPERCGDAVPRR

B1: FGF-18 (ligand, UniProt O76093 28-207, looked up)
chain: EENVDFRIHVENQTRARDDVSRKQLRLYQLYSRTSGKHIQVLGRRISARGEDGDKYAQLLVETDTFGSQVRIKGKETEFYLCMNRKGKLVGKPDGTSKECVFIEKVLENNYTALMSAKYSGWYVGFTKKGRPRKGPKTRENQQDVHFMKRYPKGQPELQKPFKYTTVTKRSRRIRPTHPA
B2: VEGF-A165 (ligand, UniProt P15692-4 27-191, looked up)
chain: APMAEGGGQNHHEVVKFMDVYQRSYCHPIETLVDIFQEYPDEIEYIFKPSCVPLMRCGGCCNDEGLECVPTEESNITMQIMRIKPHQGQHIGEMSFLQHNKCECRPKKDRARQENPCGPCSERRKHLFVQDPQTCKCSCKNTDSRCKARQLELNERTCRCDKPRR
B3: EGF (ligand)
chain: NSDSECPLSHDGYCLHDGVCMYIEALDKYACNCVVGYIGERCQYRDLKWWELR
B4: TNC III3 (other, human, UniProt P24821 805-894, looked up)
GST fusion: APSQIEVKDVTDTTALITWFKPLAEIDGIELTYGIKDVPGDRTTIDLTEDENQYSIGNLKPDTEYEVSLISRRGDMSSNPAKETFTTGLD
notes: domain fragment; also called TNC III3 fused to GST
B5: Fg β1-66 (other)
fibrinogen Bβ chain fragment: QGVNDNEEGFFSARGHRPLDKKREEAPSLRPAPPPISGGGYRARPAKAAATQKKVERKAPDAGGCG
notes: production not given
B6: TGF-β3 (ligand)
chain: ALDTNYCFRNLEENCCVRPLYIDFRQDLGWKWVHEPKGYYANFCSGPCPYLRSADTTHSTVLGLYNTLNPEASASPCCVPQDLEPLTILYYVGRTPKVEQLSNMVVKSCKCS
modifications: Natural form is a disulfide-linked homodimer; one protomer is given.
B7: FGF-4 (ligand, UniProt P08620 31-206, looked up)
chain: APTAPNGTLEAELERRWESLVALSLARLPVAAQPKEAAVQSGAGDYLLGIKRLRRLYCNVGIGFHLQALPDGRIGGAHADTRDSLLELSPVERGVVSIFGVASRFFVAMSSKGKLYGSPFFTDECTFKEILLPNNYNAYESYKYPGMFIALSKNGKTKKGNRVSPTMKVTHFLPRL
B8: TNC III5 fused to GST (other, human, UniProt P24821 991-1074, looked up)
chain: LQVSETAETSLTLLWKTPLAKFDRYRLNYSLPTGQWVGVQLPRNTTSYVLRGLEPGQEYNVLLTAEKGRHKSKPARVKASTEQA
notes: domain: TNC III5; also called domain TNC III5; not shown: GST
B9: FGF-6 (ligand, UniProt P10767 38-208, looked up)
chain: SPAGTRANNTLLDSRGWGTLLSRSRAGLAGEIAGVNWESGYLVGIKRQRRLYCNVGIGFHLQVLPDGRISGTHEENPYSLLEISTVERGVVSLFGVRSALFVAMNSKGRLYATPSFQEECKFRETLLPNNYNAYESDLYQGTYIALSKYGRVKRGSKVSPIMTVTHFLPRI
B10: FGF-7 (ligand, UniProt P21781 32-194, looked up)
chain: CNDMTPEQMATNVNCSSPERHTRSYDYMEGGDIRVRRLFCRTQWYLRIDKRGKVKGTQEMKNNYNIMEIRTVAVGIVAIKGVESEFYLAMNKEGKLYAKKECNEDCNFKELILENHYNTYASAKWTHNGGEMFVALNQKGIPVRGKKTKKEQKTAHFLPMAIT
B11: TNC III4 (other, human, UniProt P24821 895-990, looked up)
GST fusion: APRNLRRVSQTDNSITLEWRNGKAAIDSYRIKYAPISGGDHAEVDVPKSQQATTKTTLTGLRPGTEYGIGVSAVKEDKESNPATINAATELDTPKD
notes: domain fragment; also called TNC III4 fused to GST
B12: FGF-20 (ligand)
chain: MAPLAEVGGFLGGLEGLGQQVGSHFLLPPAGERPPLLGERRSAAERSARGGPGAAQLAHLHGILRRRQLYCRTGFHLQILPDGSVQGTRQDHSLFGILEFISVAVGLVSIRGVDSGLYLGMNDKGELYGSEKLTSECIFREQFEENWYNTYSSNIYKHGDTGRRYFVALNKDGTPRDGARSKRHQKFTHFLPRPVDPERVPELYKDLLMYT
B13: VEGF-C (ligand, UniProt P49767 112-227, looked up)
chain: AHYNTEILKSIDNEWRKTQCMPREVCIDVGKEFGVATNTFFKPPCVSVYRCGGCCNSEGLQCMNTSTSYLSKTLFEITVPLSQGPKPVTISFANHTSCRCMSKLDVYRQVHSIIRR
B14: BMP-2 (ligand, UniProt P12643 283-396, looked up)
chain: QAKHKQRKRLKSSCKRHPLYVDFSDVGWNDWIVAPPGYHAFYCHGECPFPLADHLNSTNHAIVQTLVNSVNSKIPKACCVPTELSAISMLYLDENEKVVLKNYQDMVVEGCGCR
B15: FGF-10 (ligand, UniProt O15520 38-208, looked up)
chain: QALGQDMVSPEATNSSSSSFSSPSSAGRHVRSYNHLQGDVRWRKLFSFTKYFLKIEKNGKVSGTKKENCPYSILEITSVEIGVVAVKAINSNYYLAMNKKGKLYGSKEFNNDCKLKERIEENGYNTYASFNWQHNGRQMYVALNGKGAPRRGQKTRRKNTSAHFLPMVVHS
B16: PlGF-2 (ligand, UniProt P49763-3 19-170, looked up)
chain: LPAVPPQQWALSAGNGSSEVEVVPFQEVWGRSYCRALERLVDVVSEYPSEVEHMFSPSCVSLLRCTGCCGDENLHCVPVETANVTMQLLKIRSGDRPSYVELTFSQHVRCECRPLREKMKPERRRPKGRGKRRREKQRPTDCHLCGDAVPRR
B17: BDNF (ligand, UniProt P23560 129-247, looked up)
chain: HSDPARRGELSVCDSISEWVTAADKKTAVDMSGGTVTVLEKVPVSKGQLKQYFYETKCNPMGYTKEGCRGIDKRHWNSQCRTTQSYVRALTMDSKKRIGWRFIRIDTSCVCTLTIKRGR
notes: also called brain-derived neurotrophic factor
B18: TGF-β2 (ligand, UniProt P61812 303-414, looked up)
chain: ALDAAYCFRNVQDNCCLRPLYIDFKRDLGWKWIHEPKGYNANFCAGACPYLWSSDTQHSRVLSLYNTINPEASASPCCVSQDLEPLTILYYIGKTPKIEQLSNMIVKSCKCS
B19: FGF-17 (ligand, UniProt O60258 23-216, looked up)
chain: TQGENHPSPNFNQYVRDQGAMTDQLSRRQIREYQLYSRTSGKHVQVTGRRISATAEDGNKFAKLIVETDTFGSRVRIKGAESEKYICMNKRGKLIGKPSGKSKDCVFTEIVLENNYTAFQNARHEGWFMAFTRQGRPRQASRSRQNQREAHFIKRLYQGQLPFPNHAEKQKQFEFVGSAPTRRTKRTRRPQPLT

Columns and labels:
TNC III1-5 [1] = target: T1, TNC III1-5; experiment: ELISA: cytokine coated (50 nM), 100 nM TNC III1-5 in solution, HRP-anti-His, A450; black bars without, white bars with 4 µM heparin
Experimental: (§1) ELISA plates were coated with cytokines or BSA and further incubated with TNC III1-5 to analyze binding of TNC III1-5 to a wide variety of cytokines. […] A large amount of heparin (4 μM) impaired binding of TNC III1-5 to these cytokines. Results are depicted in FIG. 3. Method: 50 nM of cytokine was coated for (1 hr, 37° C.). After blocking with 2% BSA (1 hr, RT). 100 nM TNC III1-5 was applied in PBST (0.05% tween, 0.1% bovine serum albumin (BSA)) (1 hr, RT). TNC III1-5 was detected with horseradish peroxidase (HRP)-anti-HIS in PBST (1 hr, RT) and developed with 3,3′,5,5′-tetramethylbenzidine (TMB), a soluble colorimetric HRP […]. Addition of sulfuric acid stop solution changes the color to yellow, enabling accurate measurement of the intensity at 450 nm using a spectrophotometer or plate reader. […] Heparin (4 μM) was added to TNC III1-5 to test the effect of blocking the heparin binding site of TNC III1-5, which has been defined as domain TNC III5 (Weber, Zimmermann, et al., 1995).

TNC III1-5 [2] = target: T1, TNC III1-5; experiment: ELISA: cytokine coated (50 nM), 100 nM TNC III1-5 in solution, HRP-anti-His, A450
Experimental: as §1

PDGF-BB = target: T3, PDGF-BB (UniProt P01127 82-190); experiment: ELISA: GST-fused TNC domains, GST and BSA coated, 2 nM PDGF-BB in solution, anti-PDGF-BB antibody and HRP secondary, A450
T3 construct: The name implies a homodimer of B chains
T3 sequence (P01127 82-190 limits assumed): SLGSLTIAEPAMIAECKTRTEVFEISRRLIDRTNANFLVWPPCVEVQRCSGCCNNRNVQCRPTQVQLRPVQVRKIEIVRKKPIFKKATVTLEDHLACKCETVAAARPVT
Experimental: An ELISA was performed to test the affinity of different domains present in TNC1-5 to PDGF-BB as an example cytokine that has shown to bind TNC III1-5. Domain TNC III5 was defined to be responsible for cytokine binding. Method: ELISA plates were coated with individual TNC domains fused to GST, as well as GST and BSA. Wells were blocked with BSA and then incubated with 2 nM PDGF-BB. Binding of PDGF-BB was detected using an anti-PDGF-BB antibody and then a secondary horseradish peroxidase conjugated antibody.

TGF-β3 = target: B6; experiment: ELISA: growth factor coated, Fg fragment in solution, A450 (methods analogous to Example 3)
Experimental: as §1
(§2) ELISA plates were coated with cytokines or BSA and further incubated with Fg β15-66 to analyze binding of […] to a wide variety of cytokines. […] Results are depicted in FIG. 4. Method: The methods were analogous to those used in Example 3.

EGF = target: B3; experiment: as above
Experimental: as §1, §2

PlGF-1 = target: T2, PlGF-1; experiment: as above
Experimental: as §1, §2

FGF-6 = target: B9; experiment: as above
Experimental: as §1, §2

BSA = target: T4, BSA (bovine, UniProt P02769); experiment: ELISA: BSA coated as control, Fg fragment in solution, A450 (methods analogous to Example 3)
T4 construct: negative control; also called bovine serum albumin
T4 sequence (P02769 25-607 limits assumed): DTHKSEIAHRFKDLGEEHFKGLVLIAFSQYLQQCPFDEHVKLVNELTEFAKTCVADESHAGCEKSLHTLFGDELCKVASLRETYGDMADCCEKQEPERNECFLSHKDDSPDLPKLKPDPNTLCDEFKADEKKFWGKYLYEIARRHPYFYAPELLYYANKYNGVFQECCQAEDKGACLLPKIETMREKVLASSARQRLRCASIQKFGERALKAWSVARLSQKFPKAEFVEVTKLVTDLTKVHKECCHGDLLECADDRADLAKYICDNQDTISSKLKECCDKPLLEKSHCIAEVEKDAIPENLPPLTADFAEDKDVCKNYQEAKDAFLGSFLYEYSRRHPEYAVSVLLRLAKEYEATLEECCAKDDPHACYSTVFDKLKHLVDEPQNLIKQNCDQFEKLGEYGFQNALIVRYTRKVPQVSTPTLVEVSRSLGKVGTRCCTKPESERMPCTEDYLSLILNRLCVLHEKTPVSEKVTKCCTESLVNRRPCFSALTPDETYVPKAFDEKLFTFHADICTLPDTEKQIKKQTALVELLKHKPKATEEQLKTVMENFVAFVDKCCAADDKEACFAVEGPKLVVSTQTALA
Experimental: as §1, §2

Row | Binder | binding result (TNC III1-5 [1]) | other results
1 | B1 | binds | 
2 | B2 | binds | 
3 | B3 |  | binding result (TNC III1-5 [2]): no binding (tested: 100 nM)
4 | B4 |  | binding result (PDGF-BB): no binding (tested: 2 nM PDGF-BB)
5 | B5 |  | binding result (TGF-β3): no binding; binding result (EGF): no binding; binding result (PlGF-1): no binding; binding result (FGF-6): no binding; binding result (BSA): no binding
6 | B6 |  | binding result (TNC III1-5 [2]): no binding (tested: 100 nM)
7 | B7 | binds | 
8 | B8 |  | binding result (PDGF-BB): binds
9 | B9 | binds | 
10 | B10 | binds | 
11 | B11 |  | binding result (PDGF-BB): binds
12 | B12 |  | binding result (TNC III1-5 [2]): no binding (tested: 100 nM)
13 | B13 | binds | 
14 | B14 | binds | 
15 | B15 | binds | 
16 | B16 | binds | 
17 | B17 | binds | 
18 | B18 | binds | 
19 | B19 | binds | 
